# T1: type B receptor (Homo sapiens, UniProt P25025)
# T1 construct: expressed in transfected cells; host or cells: RBL2H3 rat basophilic leukemia cells
# T1 sequence (P25025 1-360): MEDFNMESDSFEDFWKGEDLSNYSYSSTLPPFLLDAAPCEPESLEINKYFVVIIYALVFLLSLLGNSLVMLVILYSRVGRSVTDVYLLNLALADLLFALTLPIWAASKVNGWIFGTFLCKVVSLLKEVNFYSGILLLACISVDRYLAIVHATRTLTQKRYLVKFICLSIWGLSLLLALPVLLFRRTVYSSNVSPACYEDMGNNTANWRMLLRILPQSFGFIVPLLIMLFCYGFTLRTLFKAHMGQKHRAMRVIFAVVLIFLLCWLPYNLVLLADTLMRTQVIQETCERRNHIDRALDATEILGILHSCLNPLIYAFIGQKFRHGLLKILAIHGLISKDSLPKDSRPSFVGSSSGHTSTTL
# B1: mini TyrRS: truncated TyrRS, residues 1-364 of full-length TyrRS, amino-terminal catalytic domain (protein)
# chain: MGDAPSPEEKLHLITRNLQEVLGEEKLKEILKERELKIYWGTATTGKPHVAYFVPMSKIADFLKAGCEVTILFADLHAYLDNMKAPWELLELRVSYYENVIKAMLESIGVPLEKLKFIKGTDYQLSKEYTLDVYRLSSVVTQHDSKKAGAEVVKQVEHPLLSGLLYPGLQALDEEYLKVDAQFGGIDQRKIFTFAEKYLPALGYSKRVHLMNPMVPGLTGSKMSSSEEESKIDLLDRKEDVKKKLKKAFCEPGNVENNGVLSFIKHVLFPLKSEFVILRDEKWGGNKTYTAYVDLEKDFAAEVVHPGDLKNSVEVALNKLLDPIREKFNTPALKKLASAAYPDPSKQKPMAKGPAKNSEPEEVILEHHHHHH
# modifications: His6 tag; Human mini TyrRS in pET20B
# notes: truncated TyrRS, residues 1-364 of full-length TyrRS, amino-terminal catalytic domain
# Legend:
# MPs [1] = experiment: MP chemotaxis assay (ChemoTX microchemotaxis chamber); type: cell-based, human; details: sample proteins 1 nM, 3 hours
# Method: (§1) Cells for the various cytokine assays described were prepared from acid citrate dextrose-treated blood of normal healthy volunteers. Human PMNs were isolated from the blood by centrifugation (700×g) over Histopaque 1077 and 1119 (Sigma). […] This procedure was repeated twice. Human MPs were isolated by centrifugation on Histopaque 1077 (Sigma). The mononuclear fraction was obtained, washed twice in Hanks' balanced salt solution, resuspended in RPMI-1640 medium (Sigma) containing 10% heat-inactivated fetal bovine serum (Sigma), plated in tissue culture flasks, and incubated in a 6% CO2 incubator at 37° C. for 1-2 hours (Kumagai et al., 1979, J. Immunol. Methods 29:17-25). Nonadherent cells were removed by washing the flasks three times with Hanks' balanced salt solution, and adherent cells were harvested by incubation with calcium-magnesium free phosphate-buffered saline containing 2 mM EDTA for 15 minutes at 4° C., followed by extensive washing.
# MP chemotaxis assays were performed in a ChemoTX microchemotaxis chamber (Neuro Probe, Gaithersburg, Md.) containing polycarbonate filters (5 μm pores) with polyvinylpyrrolidone (PVP). MPs were suspended in RPMI-1640 medium containing 1% heat-inactivated fetal bovine serum, and 10^4 cells were added to the upper chamber. Sample proteins (1 nM) were added to the lower compartment of chemotaxis chambers, and the chambers were incubated for 3 hours. After incubation, nonmigrating cells were removed, membranes were fixed in methanol, and migrating cells were visualized with the HEMACOLOR™ stain set (EM Diagnostic Systems, Gibbstown, N.J.). Migrating cells were counted in high-power fields (HPFs). Each determination shown in FIG. 2 represents the average of nine HPF measurements.
# MPs [2] = experiment: MP TNFα production (ELISA of culture supernatant); type: cell-based, human; details: 1 nM sample protein, 14 hours
# Method: as §1
# MP TNFα production was examined following incubation of 10^5 MPs with 1 nM of sample protein for 14 hours. Aliquots of the culture supernatant were then assayed for TNFα production using a TNFα enzyme-linked immunosorbent assay kit (Sigma). Each determination shown in FIG. 2 represents the mean of four measurements from at least three independent experiments.
# MPs [3] = experiment: MP tissue factor production (Factor VIIa-dependent Factor Xa formation); type: cell-based, human; details: 1 nM sample protein, 4 hours
# Method: as §1
# MP tissue factor production was examined following incubation of 10^4 MPs with 1 nM of sample protein for 4 hours. Tissue factor activity was then inferred from measurements of Factor VIIa-dependent Factor Xa formation (Wolfson et al., 1990 J. Chromatogr., 503:277-81). Each determination shown in FIG. 2 represents the mean of four measurements from at least three independent experiments.
# PMNs = experiment: PMN chemotaxis assay (ChemoTX microchemotaxis chamber); type: cell-based, human; details: for PMN chemotaxis (PMN migration): sample proteins 1 nM, 45 min
# Procedure, shortened: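 Human PMNs were isolated from healthy-donor blood over Histopaque 1077/1119. 10^4 cells were placed in the upper compartment of a ChemoTX microchemotaxis chamber, with sample protein at 1 nM in the lower compartment. After 45 min, migrated cells were counted as the mean of nine HPFs.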
# type B receptor = target: T1, type B receptor; experiment: Binding to RBL2H3 cells transfected with IL-8 receptor type B; details: transfected RBL2H3 rat basophilic leukemia cells; read-out: Kd on cells expressing the type B receptor
# Method: Following incubation, cells were separated from unbound radioactivity as described herein.
# Untransfected RBL2H3 cells express neither the type A nor type B receptors.
# [4] = system: human umbilical vein endothelial cells (HUVECs); experiment: HUVEC migration assay (modified Boyden chamber); type: cell-based; details: 50 nM TyrRS molecule or 0.5 nM VEGF165, 6 hours
# Method: In contrast, α-chemokines lacking the ELR motif act as angiostatic factors (id.). In order to evaluate the angiogenic activity of TyrRS, which contains the ELR motif, human full-length TyrRS and human mini TyrRS were first examined for their ability to induce endothelial cell migration. Such angiogenic assays were performed using human umbilical vein endothelial cells (HUVECs) (Clonetics, Walkersville, Md.). Cells were maintained in EGM-2® BULLETKIT® medium (Clonetics) in an atmosphere of 6% CO2 at 37° C. according to the supplier's instructions.
# Cell migration assays were performed using the modified Boyden chamber (6.5 mm Transwells) with polycarbonate membranes (8.0 μm pore size) (Costar Corp., Cambridge, Mass.) (Masood et al., 1999, Blood 93:1038-44). Wells were coated overnight with 25 μg/mL human fibronectin (Biosource International, Camarillo, Calif.) in PBS and then allowed to air-dry. HUVECs were suspended in Dulbecco's modified Eagle's medium (DMEM) (Gibco-BRL, Gaithersburg, Md.) containing 0.1% BSA (Sigma) and 2×10^5 cells per well were added to the upper chamber. The chemotactic stimulus (50 nM of a given TyrRS molecule or 0.5 nM of human vascular endothelial growth factor-165 (VEGF165) (Biosource International, Camarillo, Calif.)) was placed in the lower chamber, and the cells were allowed to migrate for 6 hours at 37° C. in a 6% CO2 incubator. After incubation, non-migrant cells were removed from the upper face of the Transwell membrane with a cotton swab and migrant cells, those attached to the lower face, were fixed in methanol and visualized with the HEMACOLOR® stain set (EM Diagnostic Systems, Gibbstown, N.J.). Migrating cells were counted in high-power fields (HPFs). HUVECs were suspended in media with the inhibitor for 30 minutes before placement in the chamber. Each determination shown in FIG. 16 represents the average of nine HPF measurements.
molecule,measurement,setting,value
B1,MP chemotaxis (MP migration),MPs [1],did not induce MP migration
same,MP TNFα production,MPs [2],did not stimulate production
same,MP tissue factor production,MPs [3],did not stimulate production
same,concentration dependence of PMN migration,PMNs,bell-shaped concentration dependence
same,PMN chemotaxis (PMN migration),PMNs,did induce PMN migration
same,PMN chemotaxis (PMN migration),PMNs; listed as human mini TyrRS,led to an induction of PMN migration
same,Kd,type B receptor,> 200 nM
same,HUVEC chemotaxis,[4],stimulated induction of HUVEC chemotaxis

# From patent publication US9205136B2, “Human aminoacyl-tRNA synthetase polypeptides useful for the regulation of angiogenesis” (THE SCRIPPS RESEARCH INSTITUTE, priority 2000, dated 2015)
